What was measured:
[1] = biological target: Abeta1-42; assay: intracellular flow cytometry of monocytes/macrophages from patient and control, isotype control stain (background level)
[2] = biological target: Abeta1-42; assay: intracellular flow cytometry of THP-1 cells, isotype control stain (background level)

Sequence of Abeta1-42 (peptide, as listed by the source): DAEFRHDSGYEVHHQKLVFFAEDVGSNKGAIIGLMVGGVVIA

**Q.** For “isotype control antibodies (Mouse IgG1 and IgG2b) (antibody)”, which median Abeta FITC-A signal [1] is on record?
**A.** The median Abeta FITC-A signal was 102.

**Q.** What about the median Abeta FITC-A signal [2] of the same substance?
**A.** The median Abeta FITC-A signal was 102.
